Common to all, as to test: EMSA
On the technique in general: Mobility shift assays separate free from complexed probe on a gel.

For data set [1], the target named is T1, BfmR (Pseudomonas aeruginosa PAO1) (UniProt Q9HWS7).
T1 sequence: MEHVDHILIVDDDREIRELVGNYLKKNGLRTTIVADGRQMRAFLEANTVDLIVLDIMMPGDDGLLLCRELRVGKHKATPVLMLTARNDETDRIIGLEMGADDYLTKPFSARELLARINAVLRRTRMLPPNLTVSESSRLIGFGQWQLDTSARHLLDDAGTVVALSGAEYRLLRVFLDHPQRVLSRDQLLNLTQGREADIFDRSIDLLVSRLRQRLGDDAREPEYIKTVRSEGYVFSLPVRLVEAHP

The target in data set [2] is T2, BfmR D205A D205A (Pseudomonas aeruginosa PAO1) (UniProt Q9HWS7).
T2 sequence: T1 sequence with D205A

Data set [3] deals with T3, BfmR R185A R185A (Pseudomonas aeruginosa PAO1) (UniProt Q9HWS7).
T3 sequence: T1 sequence with R185A

Data set [4] deals with T4, BfmR R202A R202A (Pseudomonas aeruginosa PAO1) (UniProt Q9HWS7).
T4 sequence: T1 sequence with R202A

The target in data set [5] is T5, BfmR R210A R210A (Pseudomonas aeruginosa PAO1) (UniProt Q9HWS7).
T5 sequence: T1 sequence with R210A

In data set [6] the target is T6, BfmR R212A R212A (Pseudomonas aeruginosa PAO1) (UniProt Q9HWS7).
T6 sequence: T1 sequence with R212A

Data set [7] addresses T7, BfmR S209A S209A (Pseudomonas aeruginosa PAO1) (UniProt Q9HWS7).
T7 sequence: T1 sequence with S209A

For data set [8], the target named is T8, BfmR T227A T227A (Pseudomonas aeruginosa PAO1) (UniProt Q9HWS7).
T8 sequence: T1 sequence with T227A

Positions count from the first letter of the chain named.

“CATCGGATTCCTGCGAATACTACTGATAACGATAATCTCTATCATTTACTCCATTTTTACATTTACATACACTTGCCCCGCCGCGAATTCCTACGCCGGTTTCCCACATAAACAAGAAACGC (double strand) [PfpvB]”: the binding entry in data set [1] was “binds”; in data set [2], “binds more weakly”; in data set [3], “binds more weakly”; in data set [4], “binds more weakly”; in data set [5], “binds more weakly”; in data set [6], “binds more weakly”. Besides, the binding entry in data set [7] and in data set [8] was “binds more weakly” throughout.

The record behind these values is PMC10924945.
